Reference: IntAct's records for PubMed 18458160

B1: KN motif and ankyrin repeat domain-containing protein 1 (Homo sapiens), Q14678-2 (parent)
chain: METRRRLEQERATMQMTPGEFRRPRLASFGGMGTTSSLPSFVGSGNHNPAKHQLQNGYQGNGDYGSYAPAAPTTSSMGSSIRHSPLSSGISTPVTNVSPMHLQHIREQMAIALKRLKELEEQVRTIPVLQVKISVLQEEKRQLVSQLKNQRAASQINVCGVRKRSYSAGNASQLEQLSRARRSGGELYIDYEEEEMETVEQSTQRIKEFRQLTADMQALEQKIQDSSCEASSELRENGECRSVAVGAEENMNDIVVYHRGSRSCKDAAVGTLVEMRNCGVSVTEAMLGVMTEADKEIELQQQTIESLKEKIYRLEVQLRETTHDREMTKLKQELQAAGSRKKVDKATMAQPLVFSKVVEAVVQTRDQMVGSHMDLVDTCVGTSVETNSVGISCQPECKNKVVGPELPMNWWIVKERVEMHDRCAGRSVEMCDKSVSVEVSVCETGSNTEESVNDLTLLKTNLNLKEVRSIGCGDCSVDVTVCSPKECASRGVNTEAVSQVEAAVMAVPRTADQDTSTDLEQVHQFTNTETATLIESCTNTCLSTLDKQTSTQTVETRTVAVGEGRVKDINSSTKTRSIGVGTLLSGHSGFDRPSAVKTKESGVGQININDNYLVGLKMRTIACGPPQLTVGLTASRRSVGVGDDPVGESLENPQPQAPLGMMTGLDHYIERIQKLLAEQQTLLAENYSELAEAFGEPHSQMGSLNSQLISTLSSINSVMKSASTEELRNPDFQKTSLGKITGNYLGYTCKCGGLQSGSPLSSQTSQPEQEVGTSEGKPISSLDAFPTQEGTLSPVNLTDDQIAAGLYACTNNESTLKSIMKKKDGNKDSNGAKKNLQFVGINGGYETTSSDDSSSDESSSSESDDECDVIEYPLEEEEEEEDEDTRGMAEGHHAVNIEGLKSARVEDEMQVQECEPEKVEIRERYELSEKMLSACNLLKNTINDPKALTSKDMRFCLNTLQHEWFRVSSQKSAIPAMVGDYIAAFEAISPDVLRYVINLADGNGNTALHYSVSHSNFEIVKLLLDADVCNVDHQNKAGYTPIMLAALAAVEAEKDMRIVEELFGCGDVNAKASQAGQTALMLAVSHGRIDMVKGLLACGADVNIQDDEGSTALMCASEHGHVEIVKLLLAQPGCNGHLEDNDGSTALSIALEAGHKDIAVLLYAHVNFAKAQSPGTPRLGRKTSPGPTHRGSFD
partner: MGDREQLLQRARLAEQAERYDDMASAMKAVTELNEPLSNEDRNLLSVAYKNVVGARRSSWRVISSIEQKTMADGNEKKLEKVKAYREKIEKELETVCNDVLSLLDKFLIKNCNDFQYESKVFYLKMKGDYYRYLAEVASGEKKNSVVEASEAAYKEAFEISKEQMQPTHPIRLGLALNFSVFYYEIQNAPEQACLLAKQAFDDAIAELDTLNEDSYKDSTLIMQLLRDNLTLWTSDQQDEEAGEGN
B2: KN motif and ankyrin repeat domain-containing protein 1 (Homo sapiens), Q14678-2 (parent)
chain: B1 chain
partner: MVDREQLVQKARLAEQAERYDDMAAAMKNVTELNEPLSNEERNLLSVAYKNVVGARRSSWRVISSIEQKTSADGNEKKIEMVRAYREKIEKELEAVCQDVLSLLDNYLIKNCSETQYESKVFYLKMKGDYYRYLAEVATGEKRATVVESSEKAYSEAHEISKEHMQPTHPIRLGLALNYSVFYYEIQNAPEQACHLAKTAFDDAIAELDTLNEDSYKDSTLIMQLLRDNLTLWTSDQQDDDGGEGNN
B3: KN motif and ankyrin repeat domain-containing protein 1 (Homo sapiens), Q14678-2 (parent)
chain: B1 chain
partner: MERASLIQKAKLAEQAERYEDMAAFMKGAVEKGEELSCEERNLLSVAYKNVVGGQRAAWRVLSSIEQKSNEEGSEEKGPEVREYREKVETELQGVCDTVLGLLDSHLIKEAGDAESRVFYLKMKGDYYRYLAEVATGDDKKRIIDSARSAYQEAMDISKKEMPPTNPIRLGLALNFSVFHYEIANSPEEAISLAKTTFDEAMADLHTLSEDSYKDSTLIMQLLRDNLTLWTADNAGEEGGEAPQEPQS
B4: KN motif and ankyrin repeat domain-containing protein 1 (Homo sapiens), Q14678-2 (parent)
chain: B1 chain
B5: KN motif and ankyrin repeat domain-containing protein 1 (Homo sapiens), Q14678-2 (parent)
chain: B1 chain
partner: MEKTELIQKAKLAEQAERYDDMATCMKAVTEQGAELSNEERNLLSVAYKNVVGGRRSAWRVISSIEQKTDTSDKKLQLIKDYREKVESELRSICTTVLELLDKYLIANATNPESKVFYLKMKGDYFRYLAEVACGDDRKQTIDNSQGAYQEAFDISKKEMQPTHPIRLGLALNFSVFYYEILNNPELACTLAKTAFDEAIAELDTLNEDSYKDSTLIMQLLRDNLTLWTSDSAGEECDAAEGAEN

Variants of: B1
Conditions: with 1433f_human YWHAH

| effect of a mutation on the interaction | Variant |
| --- | --- |
| disrupting interaction | S167A |

Variants of: B2
Conditions: with 1433g_human YWHAG

| effect of a mutation on the interaction | Variant |
| --- | --- |
| disrupting interaction | S167A |

Variants of: B3
Conditions: with 1433s_human SFN

| effect of a mutation on the interaction | Variant |
| --- | --- |
| disrupting interaction | S167A |

Variants of: B4
Conditions: with 1433z_human YWHAZ

| effect of a mutation on the interaction | Variant |
| --- | --- |
| disrupting interaction | S167A |

Variants of: B4
Conditions: with 1433e_human YWHAE

| effect of a mutation on the interaction | Variant |
| --- | --- |
| disrupting interaction | S167A |

Variants of: B4
Conditions: with 1433b_human YWHAB

| effect of a mutation on the interaction | Variant |
| --- | --- |
| disrupting interaction | S167A |

Variants of: B5
Conditions: with 1433t_human YWHAQ

| effect of a mutation on the interaction | Variant |
| --- | --- |
| disrupting interaction | S167A |
